Assay results from patent US20230348569A1.
Numbering of substitutions follows the chain as printed.

B1: mAb11004 (antibody, V domains shown)
VH: QVQLVESGGGVVQPGRSLRLSCVASGFTFSIYGMDWVRQAPGKGLEWVAVISYDGSNKYYADSVKGRFTISRDNSKNTLYLQMNSLRPEDTAVYYCAKDREAAADAFDIWGQGTMVTVSS
VL: DIQMTQSPSSVSASVGDRVTITCRASQGISSWLAWYQQKPGKAPKLLIYAASSLHSGVPSRFSGSGSGTDFTLTISSLQPEDFATYYCQQANSFRLTFGGGTKVEIK
B2: mAb10998 (antibody, V domains shown)
VH: EVQLVESGGGLVHPGGSLRLSCAASGLTVSSNYMSWVRQAPGKGLEWVSVIYSGGSTYYADSVKGRFTISRHNSKNTLFLQMNSLRAEDTAVYYCARDRPITGTTLDVWGQGTTVTVSS
VL: DIQMTQSPSSLFASVGDRVTITCRASQSISSYLNWYQQKPGKAPKLLIYAASSLQSGVPSRFSGSGSGTDFTLTISSLQPEDFAFYYCQQTYSTPPITFGQGTRLEIK
B3: mAb11006 (antibody, V domains shown)
VH: EVQLVESGGGLVQPGGSLRLSCAASGFIVSRNYMSWVRQAPGKGLEWVSVIYSGGSTFYADSVKGRFTISRHNSKNTLYLQMNSLKAEDTAVYYCARELRGYFDYWGQGTLVTVSS
VL: DIQLTQSPSFLSASVGDRVTITCWASQGISSYLAWYQQKPGKAPKLLIYAASTLQSGVPSRFSGSGSGTEFTLTISSLQPEDFATYYCQLLNSYPYTFGQGTKLEIK
B4: mAb11008 (antibody, V domains shown)
VH: EVQLVESGGGLVQPGGSLRLSCAASGFTVSSNYMTWVRQAPGKGLEWVSVIYSGGSTFYADSVKGRFTISRHNSENTLYLQMNSLRAEDTAVYYCARDLAAAGTDYWGQGALVTVSS
VL: B3 VL with E81D, L90H, P95L

Biological target: SARS-CoV-2-S-RBD-mmH (SARS-CoV-2)
Conditions: remark: other sources report otherwise

Row | Binder | Binding Signal (absorbance at 450 nm) (absorbance at 450 nm)
1 | B1 | 2.91
2 | B2 | 2.83
3 | B3 | 2.62
4 | B4 | 2.91

Biological target: SARS-CoV-2 RBD extracellular domain expressed with a C-terminal myc-myc-hexahistidine tag (SARS-COV-2 RBD-MMH) (SARS-CoV-2)
Conditions: remark: other sources report otherwise

Row | Binder | t½ (dissociative half-life)
5 | B1 | 3.7 min
6 | B2 | 0.5 min
7 | B3 | 31.5 min
8 | B4 | 2.9 min
